For one substance, stoichiometry N results are on record in publication PMC5687031.

In the experiment the target is full-length Spc29^2-253 (S. cerevisiae) (UniProt P33419). Put plainly: SAXS.

Sequence of full-length Spc29^2-253 (P33419 2-253): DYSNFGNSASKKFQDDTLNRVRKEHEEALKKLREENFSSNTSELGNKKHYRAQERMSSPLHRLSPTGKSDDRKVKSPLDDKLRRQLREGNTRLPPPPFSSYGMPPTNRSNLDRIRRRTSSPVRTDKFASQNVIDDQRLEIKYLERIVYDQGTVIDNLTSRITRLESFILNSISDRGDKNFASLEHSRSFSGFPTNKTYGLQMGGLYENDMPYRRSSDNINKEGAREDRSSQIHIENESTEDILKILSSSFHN

“full-length Spc29^2-253 (from UniProt P33419 2-253) (natural protein)” returned a stoichiometry N of 3 chains.

One may read the stoichiometry N as a count of units in the complex or per binding partner.
